Source: patent publication US20260042834A1 (HBM ALPHA THERAPEUTICS, published 2026)
Residue numbers refer to the chain shown, from its start. Like-named read-outs stand apart in the source and are kept apart here.

T1: corticotropin-releasing hormone (CRH) peptide (human and mouse (same sequence), not fully specified)
T1 peptide: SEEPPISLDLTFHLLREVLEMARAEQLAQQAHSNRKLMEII

T2: CRH (CT-Biotin) (human and mouse (same sequence), biotin on an added C-terminal K (CRH-K-Biotin))
T2 construct: also called Peptide 4 (CRH-Biotin)
T2 peptide: T1 peptide

T3: CRH (NT-Biotin) (human and mouse (same sequence), not fully specified; biotin at the N-terminus)
T3 peptide: T1 peptide

T4: corticotropin-releasing hormone (CRH) peptide (human and mouse, not fully specified)
T4 peptide: T1 peptide

T5: CRH (CT-Biotin) (human and mouse, biotin on the added C-terminal K (-K-Biotin))
T5 construct: also called Peptide 4 (CRH-Biotin); C-terminally biotinylated corticotropin-releasing hormone
T5 peptide: T1 peptide

T6: CRH (NT-Biotin) (human and mouse, not fully specified; biotin at the N-terminus)
T6 construct: also called Biotin-CRH; N-terminally biotinylated corticotropin-releasing hormone
T6 peptide: T1 peptide

B1: PR005657 (antibody, human IgG1, kappa, V domains shown)
VH: EVQLVESGGVLVQPGGSLRLSCAASGFTFSSYWMTWVRQAPGKGLEWVANIKQDASEKYYVDSVKGRFTISRDNAKNSLFLQMNSLRAEDTAVYYCARTLIFDYWGQGTLVTVSS
VL: DIVMTQSPLSLPVTPGEPASISCRSSQSLLHSTGYNSLEWYLQKPGQSPQLLIYLGSNRASGVPDRFSGSGSGTDFTLKISRVEAEDVGIYYCMQTLQTPITFGQGTRLEIKR
notes: PTM-removal variant of PR004290
B2: PR302036 (antibody, human IgG1, kappa, V domains shown)
VH: EMQLVESGGGLVQPGGSLRLSCAASGFTFSNYWMNWVRQAPGKGLEWVAEIRLKSNNYATHYAESVKGRFTISRDDSKSSVYLQMNSLKTEDTAVYYCTVGTLVYWGQGTLVTVSS
VL: DIVLTQSPDSLAVSLGERATINCRASQSVSTSTYNYMHWFQQKPGQPPKLLIKFASNLESGVPDRFSGSGSGTDFTLTISSLQAEDTAVYYCQHSWEIPYTFGQGTKLEIKR
notes: humanized variant of PR301777
B3: PR302038 (antibody, human IgG1, kappa, V domains shown)
VH: B2 VH
VL: EIVLTQSPATLSLSPGERATLSCRASQSVSTSTYNYMHWFQQKPGQAPRLLIKFASNLESGIPARFSGSGSGTDFTLTISSLEPEDTAVYYCQHSWEIPYTFGQGTKLEIKR
notes: humanized variant of PR301777
B4: PR302045 (antibody, human IgG1, kappa, V domains shown)
VH: B2 VH with M2V, R19K, P41S, A49G, S79N, S80T, V81A, V100R
VL: B3 VL
notes: humanized variant of PR301777
B5: PR302055 (antibody, human IgG1, kappa, V domains shown)
VH: B2 VH with R19K, P41S, S80T
VL: DIQLTQSPSSLSASVGDRVTITCRASQSVSTSTYNYMHWFQQKPGKAPKLLIKFASNLESGVPSRFSGSGSGTDFTLTISSLQPEDTATYYCQHSWEIPYTFGQGTKLEIKR
notes: humanized variant of PR301777
B6: PR302029 (antibody, human IgG1, kappa, V domains shown)
VH: B2 VH with M2V, A49G, S79N, V81L
VL: B2 VL
notes: humanized variant of PR301777
B7: PR302050 (antibody, human IgG1, kappa, V domains shown)
VH: B2 VH with R19K, P41S, S80T
VL: B2 VL
notes: humanized variant of PR301777
B8: PR302043 (antibody, human IgG1, kappa, V domains shown)
VH: B2 VH with M2V, R19K, P41S, A49G, S79N, S80T, V81A, V100R
VL: B2 VL
notes: humanized variant of PR301777
B9: PR302052 (antibody, human IgG1, kappa, V domains shown)
VH: B2 VH with R19K, P41S, S80T
VL: B3 VL
notes: humanized variant of PR301777
B10: PR302031 (antibody, human IgG1, kappa, V domains shown)
VH: B2 VH with M2V, A49G, S79N, V81L
VL: B3 VL
notes: humanized variant of PR301777
B11: PR302328 (antibody, human IgG1, kappa, V domains shown)
VH: EVKLVESGGGLVKPGGSLKLSCAASGFTFSSYAMSWVRQTPEKRLEWVASIRSGGTTYYPDSVKGRFTISRDNARNILYLQMSSLRSEDTAIYYCTRGIDWGQGTLVTVSA
VL: NIVMTQTPKFLLVSAGDRVTITCKASQSVNNDVAWYQQKPGQSPKLLIYYASNRYTGVPDRFTGSGYGTDFTFTISTVQAEDLAVYFCQQDYSSWTFGGGTKLEIKR
notes: Mouse variable domains, expressed recombinantly with human IgG1 wildtype Fc; also called Series 9 mAb
B12: PR302334 (antibody, human IgG1, kappa, V domains shown)
VH: B11 VH with S31T
VL: B11 VL with V19I, K102N
notes: as for B11
B13: PR302331 (antibody, human IgG1, kappa, V domains shown)
VH: B11 VH with T40S
VL: B11 VL with T22A
notes: as for B11
B14: PR302339 (antibody, human IgG1, kappa, V domains shown)
VH: B11 VH with M34L
VL: B11 VL
notes: as for B11
B15: PR302335 (antibody, human IgG1, kappa, V domains shown)
VH: DVQLVESGGGLVQPGGSRKLSCAASGFTFSSFGMHWVRQAPEKGLEWVAYISSGSTIFYYADTVKGRFTISRDNPKNTLFLQMTSLRSEDTAMYYCARDITTATFAFWGQGTLVTVSA
VL: DVVLTQTPLSLPVSLGDQVSISCRSSQNLLHNNGNTYLHWYLQKPGQSPRLLIYKVSNRFSGVPDRFSGSGSGTDFTLKITRVEAEDLGVYFCSQSTHIPWTFGGGTKLEIKR
notes: Mouse variable domains, expressed recombinantly with human IgG1 wildtype Fc; also called Series 8 mAb
B16: PR302332 (antibody, human IgG1, kappa, V domains shown)
VH: QIQLVQSGPELKKPGETVKISCKASGYTFTNFGMHWVKQAPGKVLKWMGWINTYTGEPIYAADFKGRFAFSLETSASTAYLQINNLKNEDTATYFCSRSTMITTGGVFAYWGQGTLVTVSA
VL: DVLMAQTPLSLPVSLGDQASISCRSSQSIVHSDGNTYLEWYLQKPGQSPKLLIYKVSNRFSGVPDRFSGSGSGTDFTLKISRVEAEDLGVYYCFQGSHVPWTFGGGTKLEIKR
notes: Mouse variable domains, expressed recombinantly with human IgG1 wildtype Fc; also called Series 7 mAb
B17: PR302324 (antibody, human IgG1, kappa, V domains shown)
VH: EVQLQQSGPELVKPGASVKMSCKASGYTFTDYFMKWVKQSHGGSLEWIGVISPNNGDTFYNQKFKGKATLTVDKSSSTAFMQLNSLTSEDSAVYSCARGTDRALFAYWGQGTLVTVSA
VL: B16 VL with A5T, K44R, E84G, V99I, I111V
notes: Mouse variable domains, expressed recombinantly with human IgG1 wildtype Fc; also called Series 10 mAb
B18: PR302315 (antibody, human IgG1, kappa, V domains shown)
VH: B15 VH with V12M, A23V, T56S, F58I, T78I, F107Y
VL: B15 VL with L4M, V19A, N28S, L30V, N32S, R50K, T81S, I99V
notes: as for B15
B19: PR302341 (antibody, human IgG1, kappa, V domains shown)
VH: B17 VH with G43E, S52N, T58I, T115A
VL: B16 VL with A5T, S26G, K44R, K50R, E84G, V90I, V99I, I111V
notes: as for B17
B20: PR302312 (antibody, human IgG1, kappa, V domains shown)
VH: B17 VH with V37M, G43K, S52N, K63N, F80Y, S95Y, A97T, D101A
VL: B16 VL with A5T, K44R, E84G, I111V
notes: as for B17
B21: PR301777 (antibody, human IgG1, kappa, V domains shown)
VH: EMKLEESGGGLVQPGGSMKLSCVASGFTFSNYWMNWVRQSPEKGLEWVAEIRLKSNNYATHYAESVKGRFTISRDDSKSGVYLQMNNLGAEDTGIYYCTVGTLVYWGQGTLVTVSA
VL: DIVLTQSPASLAVSLGQRATISCRASQSVSTSTYNYMHWFQQKPGQPPKLLIKFASNLESGVPARFSGSGSGTDFTLNIHPVEEEDTATFYCQHSWEIPYTFGGGTKLEIKR
notes: Series 5; mouse variable domains, human IgG1 wildtype Fc

What was measured:
[1] = target: T1, corticotropin-releasing hormone (CRH) …; test: cell-based or functional assay
CRH (CT-Biotin) [2] = target: T2, CRH (CT-Biotin); test: ELISA, biotinylated CRH on streptavidin plate
Experimental: (§1) Streptavidin (Thermo, Cat: 21125) was diluted in PBS to a concentration of 2 μg/ml. 100 μl of diluted streptavidin was added per well to ELISA microplates, and the plates were incubated overnight at 4° C. […] 100 μL of 3,3′,5,5′-tetramethylbenzidine (TMB) substrate (Biopanda, Cat: TMB-S-003) was added, and the plates were incubated at room temperature for 15 minutes. 100 μL of ELISA stopping solution (Solarbio, Cat #: C1058) was added to terminate the reaction, and the optical density at 450 nm (OD450 nm) was determined by an ELISA plate reader (Molecular Devices, Spectra max 384 plus).

[3] = target: T1, corticotropin-releasing hormone (CRH) …; test: cell-based or functional assay
CRH (NT-Biotin) [4] = target: T3, CRH (NT-Biotin); test: ELISA, biotinylated CRH on streptavidin plate
Experimental: as §1

CRH (CT-Biotin) [5] = target: T2, CRH (CT-Biotin); test: ELISA, biotinylated CRH on streptavidin plate
Experimental: as §1

[6] = target: T4, corticotropin-releasing hormone (CRH) …; test: cell-based or functional assay
CRH (CT-Biotin) [7] = target: T5, CRH (CT-Biotin); test: ELISA, C-terminally biotinylated CRH on streptavidin-coated plate
Experimental: as §1

CRH (NT-Biotin) [8] = target: T6, CRH (NT-Biotin); test: ELISA, N-terminally biotinylated CRH on streptavidin-coated plate
Experimental: as §1

Binder	hCRHR1 Luciferase Reporter Assay IC50 [3] [nM]	mCrhr1 Luciferase Reporter Assay IC50 [3] [nM]	EC50 (CRH (NT-Biotin) [4]) [nM]	EC50 (CRH (CT-Biotin) [5]) [nM]	hCRHR1 Reporter IC50 [6] [nM]	EC50 (CRH (CT-Biotin) [7]) [nM]	EC50 (CRH (NT-Biotin) [8]) [nM]	further results
B1								hCRHR1 Luciferase Reporter Assay IC50 [1]: 4.6 nM; mCrhr1 Luciferase Reporter Assay IC50 [1]: 11.8 nM; EC50 (CRH (CT-Biotin) [2]): 0.045 nM
B2	1.4	3.03	0.04	0.033				
B3	3.34	10.1	0.065	0.04				
B4	15.3		0.128	0.046				
B5	1.35	4.67		0.013				
B6	2.65	13.9	0.03	0.027				
B7	0.572	2.7	0.021	0.01				
B8	3.87	9.97	0.046	0.03				
B9	2.05	7.32	0.048	0.018				
B10	14		0.037	0.028				
B11					0.545	0.03	0.043	
B12					0.546	0.021	0.026	
B13					0.39	0.02	0.016	
B14					0.852	0.018	0.018	
B15					3.72	0.016	0.014	
B16					1.93	0.072	0.107	
B17					0.498	0.016	0.019	
B18					13.9	0.008	0.014	
B19					0.503	0.017	0.023	
B20					1.37	~0.011	0.025	
B21	0.674	2.42	0.043	0.043				
